Values of other authors as cited in paper PMC5725453.

Target: PI4KB (Homo sapiens) (UniProt Q9UBF8)
UniProt Q9UBF8, sequence (Q9UBF8 2-816): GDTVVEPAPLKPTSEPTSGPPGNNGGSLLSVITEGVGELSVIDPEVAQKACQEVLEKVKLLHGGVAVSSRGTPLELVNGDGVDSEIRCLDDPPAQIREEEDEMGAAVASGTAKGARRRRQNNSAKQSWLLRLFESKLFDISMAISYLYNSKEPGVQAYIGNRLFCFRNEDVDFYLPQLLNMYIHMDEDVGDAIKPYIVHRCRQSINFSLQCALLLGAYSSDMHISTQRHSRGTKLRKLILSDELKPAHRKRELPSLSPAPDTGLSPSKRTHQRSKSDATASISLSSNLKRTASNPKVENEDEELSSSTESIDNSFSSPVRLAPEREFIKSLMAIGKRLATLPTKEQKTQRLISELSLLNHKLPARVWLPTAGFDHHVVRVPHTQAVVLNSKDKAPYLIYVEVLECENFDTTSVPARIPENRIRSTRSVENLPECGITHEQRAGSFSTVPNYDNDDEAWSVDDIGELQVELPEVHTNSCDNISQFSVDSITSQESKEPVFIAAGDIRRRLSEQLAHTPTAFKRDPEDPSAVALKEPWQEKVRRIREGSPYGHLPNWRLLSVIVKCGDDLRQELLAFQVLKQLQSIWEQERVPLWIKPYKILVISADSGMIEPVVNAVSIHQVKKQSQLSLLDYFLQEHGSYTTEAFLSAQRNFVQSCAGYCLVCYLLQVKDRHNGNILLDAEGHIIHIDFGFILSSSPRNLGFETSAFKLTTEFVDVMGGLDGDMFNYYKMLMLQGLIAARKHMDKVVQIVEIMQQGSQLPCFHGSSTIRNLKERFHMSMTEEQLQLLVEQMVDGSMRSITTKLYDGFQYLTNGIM

Kd: 320 nM
Substance: ACBD3 (from UniProt Q9H3P7)
